Patent publication US8889620B2, “Pharmaceutical compositions comprising peptide antagonists of vascular endothelial growth factor” (Children's Medical Center Corporation, priority 1997, dated 2014)
“Also recorded” adds a separate entry of the source. Where no end group is shown, it is not given here.

Tests used:
[1] = biological target: VEGF165R (Homo sapiens, UniProt O14786); test: Direct binding/cross-linking of 125I-GST-Ex 7 to HUVEC: VEGF165R; parameters: HUVEC, which express both KDR/Flk-1 and VEGF165R; endogenous in cells; host or cells: HUVEC (ATCC); conditions: cross-linking, 1 ug/ml heparin, FIG. 1 lane 3
Method: (§1) FIG. 1. Cross-linking of 1 ^125I-VEGF165, ^125I-VEGF121 and ^125I-GST-EX 7 to HUVEC. ^125I-VEGF165 (5 ng/ml) (lane 1) or ^125I-VEGF121 (10 ng/ml) (lane 2) or ^125I-GST-EX 7 (50 nglml) (lane 3) were bound to subconfluent cultures of HUVEC in 6-cm dishes. The binding was carried out in the presence of 1 ug/ml heparin. At the end of a 2-H incubation, each ^125I-VEGF isoform was chemically cross-linked to the cell surface. The cells were lysed and proteins were resolved by 6% SDS-PAGE. The polyacrylamide gel was dried and exposed to x-ray film.
(§2) Binding and cross-linking experiments using 125I-VEGF165 and 125I-VEGF121 were performed at described previously (Gitay-Goren, et al., J. Biol. Chem., 287, 6003-6096 (1992), Soker, et al., J: Biol. Chem., 271,5761-5767 (1996)). VEGF binding was quantified by measuring the cell-associated radioactivity in a y-counter (Beckman, Gamma 5500). The counts represent the average of three walls. All experiments were repeated at least three times, and similar results were obtained. 125I-VEGF cross-linked complexes were resolved by 6% SDS-PAGE, and the gels were exposed to a phosphor screen and scanned after 24 h by a PhosphorImager (Molecular Dynamics). Subsequently, the gels were exposed to x-ray film.

[2] = biological target: T1, KDR/Flk-1 (Homo sapiens, UniProt P35968); test: Cross-linking of 125I-VEGF165 to KDR/Flk-1 on PAE-KDR cells; assay type: binding, porcine endothelial cells transfected to express KDR/Flk-1; parameters: expressed in transfected cells; host or cells: porcine endothelial cells (PAE), gift of Dr. Claesson-Welsh; conditions: data not shown
Method: as §2

[3] = biological target: T1, KDR/Flk-1; test: Direct binding/cross-linking of 125I-GST-Ex 7 to HUVEC: KDR/Flk-1; parameters: HUVEC, which express both KDR/Flk-1 and VEGF165R; endogenous in cells; host or cells: HUVEC (ATCC); conditions: cross-linking, 1 ug/ml heparin, FIG. 1 lane 3
Method: as §1, §2

[4] = biological target: T2, VEGF165R on 231 cells (Homo sapiens, UniProt O14786); test: Inhibition of 125I-VEGF165 binding to MDA-MB-231 (231) cells
T2 construct: to 231 cells which express only VEGF165R; endogenous in cells; host or cells: MDA-MB-231 (ATCC)
Method: (§3) FIGS. 3A-3C. Inhibition of ^125I-VEGF165 binding to HUVEC, MDA MB 231 cells, and PAE-KDR cells by GST-EX 7+8. ^125I-VEGF165 (5 ng,/ml) was bound to subconfluent cultures of HUVEC (3A), MDA MB 23 1 cells (3B), and PAE-KDR cells (3C) in 48-well dishes in the presence of increasing amounts of GST-Ex 7+8 (closed 20 square) or control GST protein (open squares). At the end of a 2-h incubation, the cells were washed and lysed, and the cell-associated radioactivity was determined with a γ-counter. The counts obtained are expressed as the percentage of the counts obtained in the presence of PBS without addition of GST or fusion protein.
as §2

[5] = biological target: T3, KDR/Flk-1 and VEGF165R on HUVEC (Homo sapiens, UniProt O14786); test: Inhibition of 125I-VEGF165 binding to HUVEC; conditions: 125I-VEGF165 5 ng/ml, increasing concentrations of fusion protein, FIG. 3A
T3 construct: HUVEC, which express both KDR/Flk-1 and VEGF165R; endogenous in cells; host or cells: HUVEC (ATCC)
Method: as §3
FIGS. 5A and 5B. Localization of a core inhibitory region within exon 7. GST-Ex 7 fusion proteins containing full-length exon 7-encoded domain or truncations at the N-terminal and C-terminal ends were prepared as described in the Examples. ^125I-VEGF165 (5 ng/ml) was bound to subconfluent HUVEC cultures as described in FIG. 3, in the presence of increasing concentrations of the GST fusion proteins. At the end of a 2-h incubation, the cells were washed and lysed, and the cell-associated radioactivity was determined with a y counter. The counts obtained are expressed as percentage of the counts obtained in the presence of PBS without fusion protein B, the amino acid sequences of VEGF exon 7 derivatives. These derivatives were prepared to contain the first cysteine residue of exon 8 at their C termini to keep an even number of cysteine residue. FIG. 5B discloses SEQ ID NO: 19.
as §2

[6] = tested on: KDR/Flk-1; test: Cross-linking of 125I-VEGF165 to KDR/Flk-1 on HUVEC; assay type: binding, human; conditions: 15 ug/ml fusion protein, FIG. 4
Method: FIG. 4. GST-EX 7+8 fusion protein inhibits cross-linking of ^125I-VEGF165 to ^125I-VEGF165R and to KDR/Flk-1. ^125I-VEGF165 (5 ng/ml) was bound to subconfluent cultures of HUVEC (lanes 1 and 2) and MDA-MB-23 1 cells (lanes 3 and 4) in 6-cm dishes. The binding was carried out in the presence (lanes 2 and 4) or the absence (lanes 1 and 3) of 15 ug/ml GST-Ex 7+8. Heparin (1 ug/ml) was added to each dish. At the end of a 2-h incubation, ^125I-VEGF165 was chemically cross-linked to the cell surface. The cells were lysed, and proteins were resolved by 6% SDS-PAGE. The gel was dried and exposed to x-ray film.
as §2

T1 sequence (P35968 20-1356): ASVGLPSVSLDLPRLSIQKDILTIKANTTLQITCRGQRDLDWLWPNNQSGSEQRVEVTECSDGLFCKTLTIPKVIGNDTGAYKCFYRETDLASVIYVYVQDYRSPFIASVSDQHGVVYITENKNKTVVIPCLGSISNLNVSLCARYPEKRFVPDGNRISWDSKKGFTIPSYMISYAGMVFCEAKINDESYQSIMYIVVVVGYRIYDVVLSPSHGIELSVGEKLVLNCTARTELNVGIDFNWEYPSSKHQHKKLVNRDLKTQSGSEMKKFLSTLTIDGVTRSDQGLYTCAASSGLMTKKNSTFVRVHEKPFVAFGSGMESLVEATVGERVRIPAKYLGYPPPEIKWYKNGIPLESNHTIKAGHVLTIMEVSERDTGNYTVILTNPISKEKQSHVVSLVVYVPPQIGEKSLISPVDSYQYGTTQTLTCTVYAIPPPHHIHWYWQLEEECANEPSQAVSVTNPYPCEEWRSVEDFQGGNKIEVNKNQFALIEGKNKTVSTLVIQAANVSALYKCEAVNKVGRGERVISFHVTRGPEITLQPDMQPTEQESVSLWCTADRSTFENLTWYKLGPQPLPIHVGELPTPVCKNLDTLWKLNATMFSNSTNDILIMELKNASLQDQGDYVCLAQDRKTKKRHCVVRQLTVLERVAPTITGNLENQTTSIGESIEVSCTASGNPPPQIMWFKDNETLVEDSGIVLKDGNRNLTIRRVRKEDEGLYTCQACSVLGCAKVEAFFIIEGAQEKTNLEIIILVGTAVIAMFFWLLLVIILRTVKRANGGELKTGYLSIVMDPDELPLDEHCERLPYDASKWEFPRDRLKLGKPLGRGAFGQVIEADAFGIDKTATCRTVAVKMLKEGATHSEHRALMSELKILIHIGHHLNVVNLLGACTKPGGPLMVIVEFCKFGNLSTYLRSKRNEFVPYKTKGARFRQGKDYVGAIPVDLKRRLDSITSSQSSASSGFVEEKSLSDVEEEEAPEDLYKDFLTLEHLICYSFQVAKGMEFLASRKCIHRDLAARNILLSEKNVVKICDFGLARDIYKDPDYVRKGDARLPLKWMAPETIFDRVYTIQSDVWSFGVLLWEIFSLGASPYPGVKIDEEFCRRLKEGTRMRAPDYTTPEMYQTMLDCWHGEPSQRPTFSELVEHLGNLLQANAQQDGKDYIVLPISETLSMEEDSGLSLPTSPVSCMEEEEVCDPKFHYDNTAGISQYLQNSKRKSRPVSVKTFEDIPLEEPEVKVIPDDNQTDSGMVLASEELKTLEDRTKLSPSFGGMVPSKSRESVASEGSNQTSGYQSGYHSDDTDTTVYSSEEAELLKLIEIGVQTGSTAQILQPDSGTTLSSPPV
T2 sequence (O14786 22-923): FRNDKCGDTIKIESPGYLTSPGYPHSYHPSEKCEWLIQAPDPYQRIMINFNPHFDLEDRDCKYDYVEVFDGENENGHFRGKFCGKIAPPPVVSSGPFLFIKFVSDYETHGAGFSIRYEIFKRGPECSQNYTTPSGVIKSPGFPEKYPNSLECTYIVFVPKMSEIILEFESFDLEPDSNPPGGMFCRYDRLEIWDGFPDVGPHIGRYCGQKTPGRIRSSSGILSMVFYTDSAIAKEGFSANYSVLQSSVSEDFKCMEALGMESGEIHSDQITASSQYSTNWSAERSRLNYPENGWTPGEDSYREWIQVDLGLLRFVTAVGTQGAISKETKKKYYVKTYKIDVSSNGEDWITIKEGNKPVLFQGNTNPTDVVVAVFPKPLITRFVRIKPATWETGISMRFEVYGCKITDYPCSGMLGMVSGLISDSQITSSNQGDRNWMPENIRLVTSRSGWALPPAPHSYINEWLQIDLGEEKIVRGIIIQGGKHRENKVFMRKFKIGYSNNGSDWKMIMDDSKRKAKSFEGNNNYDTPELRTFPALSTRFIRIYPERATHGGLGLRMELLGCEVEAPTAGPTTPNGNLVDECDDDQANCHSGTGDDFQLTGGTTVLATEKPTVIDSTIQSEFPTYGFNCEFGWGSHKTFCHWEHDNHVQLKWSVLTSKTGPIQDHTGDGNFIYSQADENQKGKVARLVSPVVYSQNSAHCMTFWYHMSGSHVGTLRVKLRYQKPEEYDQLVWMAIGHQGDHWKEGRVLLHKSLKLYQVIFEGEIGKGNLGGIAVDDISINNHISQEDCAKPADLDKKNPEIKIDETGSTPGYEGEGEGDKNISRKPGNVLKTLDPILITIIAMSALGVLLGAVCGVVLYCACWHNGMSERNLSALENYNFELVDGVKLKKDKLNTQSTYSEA
T3 sequence (O14786 22-923): as above
VEGF165R, sequence (O14786 22-923): as above

- direct binding to VEGF165R on HUVEC (in words) [1]: binds
- cross-linking of 125I-VEGF165 to KDR/Flk-1 on PAE-KDR cells (in words) [2]: did not inhibit
- direct binding to KDR/Flk-1 on HUVEC (in words) [3]: not and does not bind directly
- inhibition of 125I-VEGF165 binding to 231 cells ([4]; 125I-VEGF165 5 ng/ml, increasing concentrations of fusion protein, FIG. 3B): 97-98%
- VEGF165 binding to 231 breast cancer cells (in words) ([4]; cells express VEGF165R and not KDR/Flk-1): inhibits
- inhibition of 125I-VEGF165 binding to HUVEC [5]: 85-95%
Substance: GST-Ex 7+8: GST fusion protein containing the peptide encoded by VEGF165 exons 7 and 8 (PCGPCSERRKHLFVQDPQTCKCSCKNTDSRCKARQLELNERTCRCDKPRR; cysteine pairing not given here; also: GST fusion protein, side of fusion not given here)
- binding/cross-linking of 125I-VEGF165 to KDR/Flk-1 on HUVEC (in words) [6]: inhibits indirectly; also recorded: inhibited
